We go through five molecules from patent US5965697, “Disaggregated mutant human RANTES” (British Biotech Pharmaceuticals Limited, dated 1999).

Where “and” joins values, the source holds several entries; their conditions need not be identical. Equal values may be shown once.

Data set [1] deals with wild-type human RANTES (hRANTES) (human). Briefly: sedimentation equilibrium AUC in PBS, 0.1 mg/ml; self-association (monomer 7850 Da).
Data set [2] has as its target T-cell receptor complex (tyrosine kinase pathway) on CD3+ Jurkat cells and cultured human T lymphocytes (human). Particulars: scale: % of cells expressing the cell surface marker.
Data set [3] deals with cell-surface proteoglycans. Nature of the data set: radioligand binding, 0.125 nM 125I-hRANTES on CHO cells, filter harvest.
Data set [4] deals with the molecule itself. Nature of the data set: sedimentation equilibrium AUC in PBS, 0.5 mg/ml; self-association. As for the experimental part: Mutagenesis of pERM1 was performed according to the method of Kunkel et al., (Methods in Enzymology, 154: 367–382; 1987). The oligonucleotides BB-35875 (SEQ ID NO. 14; 5'-[…] […] GTGG-3') and BB-37015 (SEQ ID No. 15; 5'-[…] ACATTGA-CAA […]-3') were used to construct the hRANTES Glu26>Ala and Glu66>Ser variant genes respectively. A combination of both BB-35875 and BB-37015 was used to […]. The samples were spun at 15,000 r.p.m., 25° C. for 18 hours to reach equilibrium. Final solute distributions were recorded at 235 nm, 280 nm and 295 nm as a function of radius. The scan was repeated after a further three hours of centrifugation to confirm that equilibrium had been achieved. The final solute distribution ASCII data were captured and the Microcal Origin software for the Beckman XLA analytical ultracentrifuge was used to fit the data to a model assuming a single ideal species (Ideal1) to provide an estimate of the weight average molecular weight.

Data set [5] has as its target T-cell receptor complex (tyrosine kinase pathway) on CD3+ Jurkat cells and cultured human T lymphocytes (human).
Data set [6] concerns the target cell-surface proteoglycans. Nature of the data set: radioligand binding, 0.2 nM 125I-hRANTES E66>S on CHO cells, filter harvest.
Data set [7] concerns the target G-protein coupled receptors (GPCRs) through which hRANTES acts.

In data set [1], “wild-type human RANTES (hRANTES) (ligand)” showed an Average molecular weight by AUC (Da) of over 160000 Da.

B1: wild-type human RANTES (hRANTES) (ligand)
chain: SPYSSDTTPCCFAYIARPLPRAHIKEYFYTSGKCSNPAVVFVTRKNRQVCANPEKKWVREYINSLEMS
On to B1, for which the % of cells expressing the cell surface marker (CD69, CD11b, CD11c) on cultured human T lymphocytes, 5 µM in data set [2] came to 99.1. The same molecule showed a total counts bound in data set [3] of 5730 cpm.

B2: hRANTES E26>A E66>S (ligand)
chain: SPYSSDTTPCCFAYIARPLPRAHIKAYFYTSGKCSNPAVVFVTRKNRQVCANPEKKWVREYINSLSMS
As to B2, the “Average molecular weight by AUC (Da)” value in data set [4] is 15000 Da.

B3: hRANTES E66>S (ligand)
chain: SPYSSDTTPCCFAYIARPLPRAHIKEYFYTSGKCSNPAVVFVTRKNRQVCANPEKKWVREYINSLSMS
As for B3, the % of cells expressing the cell surface marker (CD69, CD11b, CD11c) on cultured human T lymphocytes, 5 µM in data set [2] was 0.39. In data set [5], the calcium mobilisation in CD3+ Jurkat cells turned out to be 200 fold. Further, in data set [4], the “Average molecular weight by AUC (Da)” value was 14000 Da. Besides, the total counts bound in data set [6] came out at 18300 cpm.

B4: hRANTES E26>A (ligand)
chain: SPYSSDTTPCCFAYIARPLPRAHIKAYFYTSGKCSNPAVVFVTRKNRQVCANPEKKWVREYINSLEMS
As to B4, the IC50 of p24 antigen production by PBMC infected with HIV-1 RR in data set [7] is 28 nM and 0.22 µg/ml. In data set [4], the “Average molecular weight by AUC (Da)” value came to 33000 Da.
